The source of these data is patent US20050250692A1.

The term IC50 denotes the midpoint of a concentration-inhibition curve. Read a low IC50 as greater potency.

Assay [1] deals with IGF-I receptor of Mv1Lu cells (mink). Nature of the assay: cell-based or functional assay.
Assay [2] concerns the target acidic pH binding sites of Mv1Lu cells. Nature of the assay: inhibition of 125I-α2M* binding to Mv1Lu cells at pH 5 or 6.
Assay [3] has as its target LRP-1 in mouse embryonic fibroblasts (MEF cells) (mouse) (UniProt Q91ZX7). Nature of the assay: co-immunoprecipitation with anti-annexin VI IgG from lysates of MEF cells carrying cell surface-bound 125I-α2M* (1 nM, pH 7.4).
Assay [4] has as its target acidic pH binding sites of Mv1Lu cells. Description: inhibition of 125I-α2M* binding to Mv1Lu cells at pH 6.
Assay [5] deals with TβR-V/LRP-1 in mink lung epithelial cells (Mv1Lu cells) (mink). Nature of the assay: inhibition of 10 nM 125I-IGFBP-3 affinity labeling (binding and DSS cross-linking) of TβR-V on Mv1Lu cells.
Assay [6] concerns the target insulin receptor of Mv1Lu cells (mink). Nature of the assay: cell-based or functional assay.
Assay [7] deals with acidic pH binding sites of MEF cells. Description: competition with 125I-α2M* binding to MEF cells at pH 5.5.

Sequence of LRP-1 in mouse embryonic fibroblasts (MEF cells) (mouse) (Q91ZX7 20-4545): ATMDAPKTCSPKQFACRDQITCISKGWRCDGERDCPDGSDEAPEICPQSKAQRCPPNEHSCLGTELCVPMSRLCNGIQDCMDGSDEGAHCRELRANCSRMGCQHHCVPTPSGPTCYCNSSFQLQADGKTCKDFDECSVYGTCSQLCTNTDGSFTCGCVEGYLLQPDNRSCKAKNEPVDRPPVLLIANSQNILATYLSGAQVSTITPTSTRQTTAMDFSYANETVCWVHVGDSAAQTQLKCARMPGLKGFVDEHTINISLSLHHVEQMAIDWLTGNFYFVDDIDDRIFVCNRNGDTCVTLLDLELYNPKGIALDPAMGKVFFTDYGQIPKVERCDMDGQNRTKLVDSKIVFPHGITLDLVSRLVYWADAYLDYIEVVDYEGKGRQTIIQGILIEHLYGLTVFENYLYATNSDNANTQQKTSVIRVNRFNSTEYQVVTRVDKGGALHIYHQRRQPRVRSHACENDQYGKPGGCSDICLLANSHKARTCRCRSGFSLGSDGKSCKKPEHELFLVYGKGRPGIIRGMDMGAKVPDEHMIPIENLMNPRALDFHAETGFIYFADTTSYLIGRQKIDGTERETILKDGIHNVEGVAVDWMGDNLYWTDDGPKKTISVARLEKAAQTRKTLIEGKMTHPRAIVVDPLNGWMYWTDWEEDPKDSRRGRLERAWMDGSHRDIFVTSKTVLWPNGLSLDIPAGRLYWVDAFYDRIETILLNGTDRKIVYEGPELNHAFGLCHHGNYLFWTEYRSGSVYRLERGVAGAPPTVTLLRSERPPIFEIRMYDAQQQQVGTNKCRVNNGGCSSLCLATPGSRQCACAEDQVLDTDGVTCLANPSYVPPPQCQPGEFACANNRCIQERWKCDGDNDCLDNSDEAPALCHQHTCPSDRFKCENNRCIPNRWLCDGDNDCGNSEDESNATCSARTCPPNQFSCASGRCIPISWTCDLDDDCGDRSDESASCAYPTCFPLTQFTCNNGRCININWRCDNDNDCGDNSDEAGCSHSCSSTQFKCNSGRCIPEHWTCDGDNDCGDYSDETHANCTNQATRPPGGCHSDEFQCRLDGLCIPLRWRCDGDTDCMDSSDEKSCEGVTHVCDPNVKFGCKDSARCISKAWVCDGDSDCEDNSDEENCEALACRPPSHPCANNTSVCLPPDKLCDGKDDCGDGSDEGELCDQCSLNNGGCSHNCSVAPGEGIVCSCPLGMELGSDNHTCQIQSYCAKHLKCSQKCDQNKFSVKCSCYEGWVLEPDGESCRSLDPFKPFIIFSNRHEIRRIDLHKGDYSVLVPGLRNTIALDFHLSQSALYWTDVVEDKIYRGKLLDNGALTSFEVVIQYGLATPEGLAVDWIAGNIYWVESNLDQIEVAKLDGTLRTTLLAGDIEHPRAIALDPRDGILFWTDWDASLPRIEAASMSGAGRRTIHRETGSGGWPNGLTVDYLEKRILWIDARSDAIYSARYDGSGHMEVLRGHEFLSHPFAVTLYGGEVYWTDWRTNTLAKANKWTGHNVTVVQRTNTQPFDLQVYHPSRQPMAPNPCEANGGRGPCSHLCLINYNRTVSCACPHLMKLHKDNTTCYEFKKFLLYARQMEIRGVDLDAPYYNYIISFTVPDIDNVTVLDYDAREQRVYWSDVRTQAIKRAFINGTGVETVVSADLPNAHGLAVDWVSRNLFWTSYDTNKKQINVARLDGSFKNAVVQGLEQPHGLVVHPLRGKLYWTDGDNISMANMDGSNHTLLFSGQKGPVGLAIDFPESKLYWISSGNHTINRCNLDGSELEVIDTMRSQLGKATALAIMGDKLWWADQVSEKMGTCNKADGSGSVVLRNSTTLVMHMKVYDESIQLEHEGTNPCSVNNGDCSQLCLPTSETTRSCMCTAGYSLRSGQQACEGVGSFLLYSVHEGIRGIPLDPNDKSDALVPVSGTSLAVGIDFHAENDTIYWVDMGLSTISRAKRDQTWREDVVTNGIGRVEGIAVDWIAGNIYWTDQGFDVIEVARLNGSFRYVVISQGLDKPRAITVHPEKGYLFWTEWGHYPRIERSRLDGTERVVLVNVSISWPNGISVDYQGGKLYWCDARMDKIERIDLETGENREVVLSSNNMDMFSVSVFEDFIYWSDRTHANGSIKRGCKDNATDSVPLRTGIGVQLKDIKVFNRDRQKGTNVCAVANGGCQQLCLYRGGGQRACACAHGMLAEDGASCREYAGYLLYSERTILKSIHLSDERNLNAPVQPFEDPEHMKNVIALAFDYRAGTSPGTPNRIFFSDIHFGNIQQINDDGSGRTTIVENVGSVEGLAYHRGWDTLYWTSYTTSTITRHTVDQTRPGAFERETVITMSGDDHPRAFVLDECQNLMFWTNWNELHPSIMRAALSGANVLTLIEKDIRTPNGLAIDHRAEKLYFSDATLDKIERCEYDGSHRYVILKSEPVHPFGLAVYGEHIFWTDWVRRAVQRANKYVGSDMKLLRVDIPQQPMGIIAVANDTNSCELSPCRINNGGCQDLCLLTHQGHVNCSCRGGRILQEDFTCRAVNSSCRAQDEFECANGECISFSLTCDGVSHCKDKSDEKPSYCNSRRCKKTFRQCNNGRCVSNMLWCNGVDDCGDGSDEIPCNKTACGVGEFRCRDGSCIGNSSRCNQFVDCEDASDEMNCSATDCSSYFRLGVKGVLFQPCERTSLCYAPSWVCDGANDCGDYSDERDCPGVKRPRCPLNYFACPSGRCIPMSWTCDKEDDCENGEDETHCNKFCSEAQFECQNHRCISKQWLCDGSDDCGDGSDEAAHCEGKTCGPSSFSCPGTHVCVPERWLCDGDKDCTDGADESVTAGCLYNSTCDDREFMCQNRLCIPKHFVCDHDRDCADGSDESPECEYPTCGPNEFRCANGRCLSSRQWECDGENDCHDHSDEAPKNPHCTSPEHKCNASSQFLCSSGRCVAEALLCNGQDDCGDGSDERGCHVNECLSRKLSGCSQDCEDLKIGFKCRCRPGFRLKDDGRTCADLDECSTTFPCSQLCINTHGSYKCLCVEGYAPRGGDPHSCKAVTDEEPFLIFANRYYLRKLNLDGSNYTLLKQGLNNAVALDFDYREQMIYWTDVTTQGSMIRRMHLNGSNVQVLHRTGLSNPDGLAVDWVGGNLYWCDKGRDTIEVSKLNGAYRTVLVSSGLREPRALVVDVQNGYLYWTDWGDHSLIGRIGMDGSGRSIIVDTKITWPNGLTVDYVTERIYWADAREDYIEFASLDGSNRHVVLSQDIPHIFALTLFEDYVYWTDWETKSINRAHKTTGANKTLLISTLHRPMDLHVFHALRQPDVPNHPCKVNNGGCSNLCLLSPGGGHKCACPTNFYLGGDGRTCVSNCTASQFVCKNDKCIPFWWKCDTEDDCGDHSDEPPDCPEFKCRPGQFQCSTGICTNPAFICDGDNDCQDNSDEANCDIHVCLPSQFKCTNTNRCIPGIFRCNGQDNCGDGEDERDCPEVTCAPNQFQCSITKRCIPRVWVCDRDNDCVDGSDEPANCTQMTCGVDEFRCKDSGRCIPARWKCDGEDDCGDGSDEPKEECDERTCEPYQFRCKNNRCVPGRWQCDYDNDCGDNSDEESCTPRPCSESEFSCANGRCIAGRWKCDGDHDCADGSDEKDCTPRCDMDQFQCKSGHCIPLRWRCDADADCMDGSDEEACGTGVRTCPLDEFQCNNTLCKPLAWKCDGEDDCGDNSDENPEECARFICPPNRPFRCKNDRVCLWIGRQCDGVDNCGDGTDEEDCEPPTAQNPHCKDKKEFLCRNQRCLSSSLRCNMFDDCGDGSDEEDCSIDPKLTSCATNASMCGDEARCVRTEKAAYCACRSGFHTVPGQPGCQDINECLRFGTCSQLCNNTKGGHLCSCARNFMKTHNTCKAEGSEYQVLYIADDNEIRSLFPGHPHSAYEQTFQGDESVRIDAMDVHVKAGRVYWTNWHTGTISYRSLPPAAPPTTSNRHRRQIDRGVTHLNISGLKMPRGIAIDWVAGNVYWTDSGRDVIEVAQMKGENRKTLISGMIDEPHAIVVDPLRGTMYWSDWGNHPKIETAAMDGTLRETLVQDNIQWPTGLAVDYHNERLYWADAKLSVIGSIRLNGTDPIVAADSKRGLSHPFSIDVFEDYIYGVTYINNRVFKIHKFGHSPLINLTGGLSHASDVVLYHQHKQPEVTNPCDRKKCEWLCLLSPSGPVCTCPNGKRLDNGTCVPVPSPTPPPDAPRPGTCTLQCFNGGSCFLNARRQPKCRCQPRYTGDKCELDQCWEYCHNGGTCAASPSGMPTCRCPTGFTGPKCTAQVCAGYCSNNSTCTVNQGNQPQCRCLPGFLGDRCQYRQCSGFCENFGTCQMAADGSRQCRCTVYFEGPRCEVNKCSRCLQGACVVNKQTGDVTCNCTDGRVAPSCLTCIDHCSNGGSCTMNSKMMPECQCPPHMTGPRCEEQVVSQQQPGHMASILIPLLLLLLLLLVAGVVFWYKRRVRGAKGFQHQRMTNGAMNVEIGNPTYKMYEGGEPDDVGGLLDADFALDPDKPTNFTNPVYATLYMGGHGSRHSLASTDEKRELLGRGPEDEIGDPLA

“(Q^3A^4Y^15L^16) IGF-I (from UniProt P05019 49-118) (ligand)” came in with an ED50 for blocking IGFBP-3-induced growth inhibition in Mv1Lu cells in assay [1] of 0.3 nM.

In assay [2], “bovine lactoferrin (from UniProt P24627 20-708) (ligand)” had an IC50 of 50 nM. In other words, the double-digit nanomolar range. As for “cell surface annexin VI of mouse embryonic fibroblasts (MEF and PEA-13 cells) (from UniProt P14824 2-673) (receptor)”, the percent of LRP-1-bound 125I-α2M* co-immunoprecipitated by anti-annexin VI IgG in assay [3] stood at 40%. “human low density lipoprotein (LDL) (from UniProt P04114 28-4563)”: the IC50 in assay [4] worked out at 5 µg/mL. “human receptor-associated protein (RAP) (from UniProt P30533 35-357) (ligand)” gave an IC50 in assay [5] of 5 µg/mL. For the substance “human transferrin (from UniProt P02787 20-698) (ligand)”, in assay [2], the IC50 was determined as 500 nM.

Consider insulin (ligand), for which the ED50 for blocking IGFBP-3-induced inhibition of DNA synthesis in Mv1Lu cells in assay [6] turned out to be 1 nM. The substance “native α2M (human) (from UniProt P01023 24-1474) (ligand)” yielded an IC50 in assay [7] of 150 nM.
